Assay results as given in patent US20170096495A1 (Hoffmann-La Roche, published 2017).
Substitutions are numbered along the chain they refer to. Like-named read-outs stand apart in the source and are kept apart here.

B1: STEAP-1 TCB Molecule F: "2+1 IgG CrossFab, inverted" with charge modifications (VH/VL exchange in CD3 binder, charge modification in STEAP-1 binders) (bispecific antibody)
heavy 1: EVQLVESGGGLVQPGGSLRLSCAVSGYSITSDYAWNWVRQAPGKGLEWVGYISNSGSTSYNPSLKSRFTISRDNSKNTLYLQMNSLRAEDTAVYYCARERNYDYDDYYYAMDYWGQGTLVTVSSASTKGPSVFPLAPSSKSTSGGTAALGCLVEDYFPEPVTVSWNSGALTSGVHTFPAVLQSSGLYSLSSVVTVPSSSLGTQTYICNVNHKPSNTKVDEKVEPKSCDKTHTCPPCPAPEAAGGPSVFLFPPKPKDTLMISRTPEVTCVVVDVSHEDPEVKFNWYVDGVEVHNAKTKPREEQYNSTYRVVSVLTVLHQDWLNGKEYKCKVSNKALGAPIEKTISKAKGQPREPQVCTLPPSRDELTKNQVSLSCAVKGFYPSDIAVEWESNGQPENNYKTTPPVLDSDGSFFLVSKLTVDKSRWQQGNVFSCSVMHEALHNHYTQKSLSLSP
heavy 2: not shown
light 1: DIQMTQSPSSLSASVGDRVTITCKSSQSLLYRSNQKNYLAWYQQKPGKAPKLLIYWASTRESGVPSRFSGSGSGTDFTLTISSLQPEDFATYYCQQYYNYPRTFGQGTKVEIKRTVAAPSVFIFPPSDRKLKSGTASVVCLLNNFYPREAKVQWKVDNALQSGNSQESVTEQDSKDSTYSLSSTLTLSKADYEKHKVYACEVTHQGLSSPVTKSFNRGEC
light 2: EVQLLESGGGLVQPGGSLRLSCAASGFTFSTYAMNWVRQAPGKGLEWVSRIRSKYNNYATYYADSVKGRFTISRDDSKNTLYLQMNSLRAEDTAVYYCVRHGNFGNSYVSWFAYWGQGTLVTVSSASVAAPSVFIFPPSDEQLKSGTASVVCLLNNFYPREAKVQWKVDNALQSGNSQESVTEQDSKDSTYSLSSTLTLSKADYEKHKVYACEVTHQGLSSPVTKSFNRGEC
B2: STEAP-1 TCB Molecule B: "2+1 IgG CrossFab, inverted" without charge modifications (VH/VL exchange in CD3 binder) (bispecific antibody)
light: B1 light 2
chain 1: B1 heavy 1 with N74T, E154K, E220K
chain 2: not shown
chain 3: not shown
B3: STEAP-1 TCB Molecule C: "2+1 IgG CrossFab, inverted" with charge modifications (CH1/CL exchange in CD3 binder, charge modification in STEAP-1 binders) (bispecific antibody)
light: B1 light 1
heavy: B1 heavy 1 with N74T
chain 1: not shown
chain 2: QAVVTQEPSLTVSPGGTVTLTCGSSTGAVTTSNYANWVQEKPGQAFRGLIGGTNKRAPGTPARFSGSLLGGKAALTLSGAQPEDEAEYYCALWYSNLWVFGGGTKLTVLSSASTKGPSVFPLAPSSKSTSGGTAALGCLVKDYFPEPVTVSWNSGALTSGVHTFPAVLQSSGLYSLSSVVTVPSSSLGTQTYICNVNHKPSNTKVDKKVEPKSC
B4: STEAP-1 TCB Molecule A: "2+1 IgG CrossFab, inverted" with charge modifications (VH/VL exchange in CD3 binder, charge modification in STEAP-1 binders) (bispecific antibody)
heavy 1: not shown
heavy 2: B1 heavy 1 with N74T
light 1: B1 light 1
light 2: B1 light 2
B5: STEAP-1 TCB Molecule E: "1+1 IgG CrossMab" with charge modifications (VH/VL exchange in CD3 binder, charge modification in STEAP-1 binder) (bispecific antibody)
heavy 1: B1 heavy 1 with N74T
heavy 2: not shown
light 1: B1 light 1
light 2: B1 light 2

Assays:
[1] = molecular target: T1, human STEAP-1 (Six-transmembrane epithelial antigen of prostate 1) (human, UniProt Q9UHE8 1-339); assay: cell-based or functional assay
[2] = molecular target: T1, human STEAP-1 (Six-transmembrane …); assay: cell-based or functional assay; remark: listed apart in the source
[3] = molecular target: T1, human STEAP-1 (Six-transmembrane …); assay: cell-based or functional assay; remark: listed apart in the source
[4] = molecular target: T1, human STEAP-1 (Six-transmembrane …); assay: cell-based or functional assay; remark: listed apart in the source
[5] = molecular target: T1, human STEAP-1 (Six-transmembrane …); assay: cell-based or functional assay; remark: listed apart in the source
[6] = molecular target: T1, human STEAP-1 (Six-transmembrane …); assay: cell-based or functional assay; remark: listed apart in the source
[7] = molecular target: T1, human STEAP-1 (Six-transmembrane …); assay: cell-based or functional assay; remark: listed apart in the source
[8] = molecular target: T1, human STEAP-1 (Six-transmembrane …); assay: flow cytometry on CHO-hSTEAP1 clone 2 cells, anti-human Fc secondary antibody
Method: The binding of STEAP-1 TCB molecules was tested, using STEAP-1-expressing CHO-hSTEAP1, clone 2 cells (an epithelial cell line derived from hamster ovary, that was transfected to stably overexpress human STEAP-1) and CD3-expressing immortalized T lymphocyte cells (Jurkat, DSMZ #ACC 282).
Briefly, adherent CHO-hSTEAP1 cells were harvested, using Cell Dissociation Buffer (Gibco, #13151014) counted, checked for viability and re-suspended at 2×10⁶ cells/ml in FACS buffer (100 μl PBS 0.1% BSA). Jurkat suspension cells were also harvested, counted and checked for viability. 100 μl of cell suspension (containing 0.2×10⁶ cells) were incubated in round-bottom 96-well plate for 30 min at 4° C. with increasing concentrations of the STEAP-1 TCB (31 pM-500 nM), washed twice with cold PBS containing 0.1% BSA (FACS buffer), re-incubated for further 30 min at 4° C. with the 1:50 pre-diluted FITC- or Alexa Fluor 647-conjugated AffiniPure F(ab′)2 Fragment goat-human IgG Fcg Fragment Specific secondary antibody (Jackson Immuno Research Lab, FITC #109-096-098, binding to Jurkats, or Jackson Immuno Research Lab, Alexa Fluor 647 #109-606-008, for binding to CHO-hSTEAP1, dilutions in FACS buffer) and washed twice with cold PBS 0.1% BSA. […] Staining was analyzed by FACS using a FACS Canto II (Software FACS Diva). […]

human CD3 [9] = molecular target: T2, human CD3 (human, UniProt P07766 23-207); assay: flow cytometry on Jurkat cells
T2 construct: In the assays CD3 stood as the native complex on Jurkat cells, Jurkat-NFAT reporter cells or primary human T cells; also called CD3 epsilon

human CD3 [10] = molecular target: T2, human CD3; assay: cell-based or functional assay

T1 sequence (Q9UHE8 whole entry): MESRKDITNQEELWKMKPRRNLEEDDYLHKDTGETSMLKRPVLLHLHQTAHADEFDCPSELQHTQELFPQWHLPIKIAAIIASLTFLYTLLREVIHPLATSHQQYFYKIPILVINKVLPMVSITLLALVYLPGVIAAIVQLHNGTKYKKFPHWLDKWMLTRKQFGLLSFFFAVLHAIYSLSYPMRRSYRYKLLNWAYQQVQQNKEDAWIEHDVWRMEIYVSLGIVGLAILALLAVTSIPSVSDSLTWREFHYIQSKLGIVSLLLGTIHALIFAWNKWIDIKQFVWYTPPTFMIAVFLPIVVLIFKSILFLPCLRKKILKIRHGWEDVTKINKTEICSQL
T2 sequence (P07766 23-207 limits assumed): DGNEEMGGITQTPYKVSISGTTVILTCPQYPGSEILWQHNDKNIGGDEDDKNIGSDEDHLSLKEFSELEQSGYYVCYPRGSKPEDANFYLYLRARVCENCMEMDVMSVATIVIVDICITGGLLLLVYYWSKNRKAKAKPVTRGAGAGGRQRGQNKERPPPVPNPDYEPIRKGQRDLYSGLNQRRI

| Binder | EC50 [pM] 24 h, T-cell mediated killing of LnCAP cells (LDH release, human PBMCs, E:T 10:1) [1] [pM] | EC50 [pM] 24 h, T-cell mediated killing of MKN45 cells (LDH release, human PBMCs, E:T 10:1) [1] [pM] | EC50 [nM], activation of Jurkat-NFAT reporter cells (luminescence after 6 h) with LnCaP cells [2] [nM] | EC50 [pM] 24 h, T-cell mediated lysis of LnCaP cells (LDH release) [3] [pM] | EC50 [pM] 48 h, T-cell mediated lysis of LnCaP cells (LDH release) [3] [pM] | EC50 [nM], activation of Jurkat-NFAT reporter cells (luminescence after 6 h), presence of CHO-hSTEAP1 [4] [nM] | EC50 [pM] 24 h, STEAP-1 TCB-mediated lysis of LnCaP cells (LDH release) [5] [pM] | EC50 [pM] 48 h, STEAP-1 TCB-mediated lysis of LnCaP cells (LDH release) [5] [pM] | EC50 [nM], activation of Jurkat-NFAT reporter cells (luminescence after 6 h), presence of CHO-hSTEAP1 [6] [nM] | EC50 [nM], activation of Jurkat-NFAT reporter cells (luminescence after 6 h), presence of LnCaP cells [6] [nM] | EC50 (pM), activation of primary T cells with LnCaP cells, 48 h: % CD4 + CD25+ [7] [pM] | EC50 (pM), activation of primary T cells with LnCaP cells, 48 h: % CD4 + CD69+ [7] [pM] | EC50 (pM), activation of primary T cells with LnCaP cells, 48 h: % CD8 + CD25+ [7] [pM] | EC50 (pM), activation of primary T cells with LnCaP cells, 48 h: % CD8 + CD69+ [7] [pM] | EC50 [8] [nM] | binding result (human CD3 [9]) | EC50 [nM], activation of Jurkat-NFAT reporter cells (luminescence after 6 h), presence of STEAP-1-negative CHO-K1 (human CD3 [10]) [nM] |
| --- | --- | --- | --- | --- | --- | --- | --- | --- | --- | --- | --- | --- | --- | --- | --- | --- | --- |
| B1 | 100 | 1500 | – | – | – | – | – | – | – | – | – | – | – | – | – | – | – |
| B2 | – | – | 5.73 | 95.7 | 22.9 | – | – | – | – | – | – | – | – | – | – | – | – |
| B3 | – | – | 39.5 | 152 | 12.8 | – | – | – | – | – | – | – | – | – | – | – | – |
| B4 | – | – | 3.58 | 36.8 | 31.4 | 0.1 | 13.7 | 6.35 | 7.19 | 1.36 | 447 | 300 | 271 | 124 | 20.2 | binds | – |
| B5 | – | – | – | – | – | 0.79 | 1860 | 1560 | 0.51 | 0.054 | 7960 | 4310 | 5060 | 588 | – | – | 18.8 |
